Consider 1 substance from paper PMC8396234.

In the assay the target is GHSR1a-RLuc (ghrelin GHSR1a receptor fused to Renilla luciferase) (human) (UniProt Q92847). Particulars: scale: % decrease of forskolin-induced cAMP levels. Background: cAMP levels reflect the balance of adenylyl cyclase and phosphodiesterase activity.
Sequence of UniProt Q92847 (Q92847 whole entry, the tested form may be a part): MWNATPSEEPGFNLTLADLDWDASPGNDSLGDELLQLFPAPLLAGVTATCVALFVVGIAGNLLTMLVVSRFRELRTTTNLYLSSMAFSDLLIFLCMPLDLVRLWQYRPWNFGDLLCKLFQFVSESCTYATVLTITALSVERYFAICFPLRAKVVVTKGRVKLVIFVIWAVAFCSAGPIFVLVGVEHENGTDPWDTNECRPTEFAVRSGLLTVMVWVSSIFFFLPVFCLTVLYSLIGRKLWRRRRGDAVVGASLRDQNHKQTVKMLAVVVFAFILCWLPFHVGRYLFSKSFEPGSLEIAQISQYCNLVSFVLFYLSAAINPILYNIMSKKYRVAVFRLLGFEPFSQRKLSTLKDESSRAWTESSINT

Substance Ghrelin (peptide) returned a forskolin-induced cAMP levels in HEK-293T cells expressing GHSR1a alone, 200 nM ghrelin of 25.
